In patent US20250333508A1:
pEC50: −log10 of the molar value.

Columns and labels:
[1] = biological target: murine CTLA-4. his tag protein (murine) (UniProt P09793); experiment: ELISA on coated mouse CTLA-4 his tag protein, goat anti-human IgG-Fc HRP; unit from the axis; the isotype curve is flat at OD450 0, so the number comes from a fit of a flat line
[2] = biological target: cynomolgus monkey CTLA-4. his tag protein (cynomolgus monkey) (UniProt G7PL88); experiment: ELISA on coated cynomolgus monkey CTLA-4 his tag protein, goat anti-human IgG-Fc HRP; unit from the axis; the isotype curve is flat at OD450 0, so the number comes from a fit of a flat line
UniProt G7PL88, sequence (G7PL88 entry or part of it limits assumed): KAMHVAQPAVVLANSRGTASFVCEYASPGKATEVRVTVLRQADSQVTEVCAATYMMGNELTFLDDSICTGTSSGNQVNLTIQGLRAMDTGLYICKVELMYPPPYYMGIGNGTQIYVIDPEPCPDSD

[3] = biological target: human CTLA-4 his tag antigen (human) (UniProt P16410); experiment: ELISA on coated human CTLA-4 his tag protein, goat anti-human IgG-Fc HRP; unit from the axis; the isotype curve is flat at OD450 0, so the number comes from a fit of a flat line
UniProt P16410, sequence (P16410 36-161 limits assumed): as the sequence (G7PL88 entry or part of it limits assumed) above, with N14S, T18I, M106L counted along it

Measured: pEC50

UniProt P09793, sequence (P09793 36-161 limits assumed): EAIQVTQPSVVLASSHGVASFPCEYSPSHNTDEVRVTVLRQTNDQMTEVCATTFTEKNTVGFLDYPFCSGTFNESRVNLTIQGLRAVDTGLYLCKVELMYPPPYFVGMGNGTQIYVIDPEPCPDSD

Isotype (antibody)
8.24: [1] | [2] | [3]
